This note sets out measurements from patent US20250340661A1 (JIANGSU HENGRUI PHARMACEUTICALS, published 2025).

The target of test [1] is T1, human CD40 on the cell surface (human, UniProt P25942 21-277). The experiment in a line: cell-based or functional assay.
Test [2] concerns the target T1, human CD40 on the cell surface. The experiment in a line: flow cytometry on Raji cells, AF647 anti-human IgG detection. The method, then: Raji cells are of a tumor cell line that overexpresses human CD40. 2E5 Raji cells were inoculated onto a 96-well plate. 100 μL of a test antibody was added, with the highest final concentration of 100 nM. The antibody was 5-fold diluted to 8 concentrations. The plate was incubated at 4° C. for 1 h. […] The plate was incubated at 4° C. for 30 min. The plate was washed once with wash buffer, and fluorescence intensity was measured using a flow cytometer. The binding EC₅₀ values of the anti-CD40 antibodies for CD40 were calculated. The anti-CD40 antagonistic antibody CFZ533 (i.e., iscalimab, Nova) was used as a positive control, and the heavy and light chain variable region sequences were derived from sequence 5 and sequence 2 of U.S. Pat. No. 8,277,810B, respectively.

For test [3] the target is unchanged. Description: flow cytometry on Raji cells, Alexa Fluor 488 anti-human IgG (H+L) detection. The method, then: Raji cells were plated at 1.5E5/well, and various concentrations of CD40 antagonistic antibodies were added. The plate was incubated at 4° C. for 1 h. After two washes with FACS buffer (PBS+2% FBS), a secondary antibody (Alexa Flour488 conjugated anti-human IgG (H+L) antibody) was added, and the plate was incubated at 4° C. for 0.5 h.
After two washes with FACS buffer, the fluorescence intensity on the cell surface was measured by flow cytometry (BD FACS Celesta).

T1 sequence (P25942 21-277): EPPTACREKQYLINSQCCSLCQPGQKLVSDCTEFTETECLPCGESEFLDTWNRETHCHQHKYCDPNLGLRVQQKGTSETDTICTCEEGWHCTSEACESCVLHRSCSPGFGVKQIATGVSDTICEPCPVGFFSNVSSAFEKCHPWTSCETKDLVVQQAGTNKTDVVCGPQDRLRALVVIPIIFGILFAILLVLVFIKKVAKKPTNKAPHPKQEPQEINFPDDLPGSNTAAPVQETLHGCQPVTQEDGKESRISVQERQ

B1: 3F6 human-rabbit chimeric anti-CD40 antibody (antibody, human IgG1, V domains shown)
VH: QSVKESEGGLFKPTDTLTLTCTVSGFSLSSYAISWVRQAPGNGLEWIGAIDRYGTTYYATWAKSRSTITRNTNENTVTLKMTSLTAADTATYFCARGPWYYGGDVAWTGSFDPWGPGTLVTVSS
VL: AQVLTQTASPVSAAVGGTVTISCQSSQSVANNDFLSWYQQKPGQPPKLLIYGASTLASGVPSRFRGNGSGTQFTLTITGMQCDDAATYFCTGGYAGPIYIFGGGTEVVVK
B1: the “reporter gene cell activity IC50 (HEK-Blue CD40L cells, SEAP)” value (“reporter gene cell activity IC50” for short) in test [1] is 0.378 nM. This molecule also returned an EC50 in test [2] of 1.51 nM.

B2: 9F10 human-rabbit chimeric anti-CD40 antibody (antibody, human IgG1, V domains shown)
VH: QSVKESEGGLFKPTDTLTLTCTVSGFSLSSYDMSWVRQAPGNGLEWIGAIGGAGGTYYASWAKSRSTITRNTNLNTVTLKMTSLTAADTATYFCTRGWTRLDLWGQGTLVTVSS
VL: DIVLTQTESPVSGPVGGTVTINCQASEDISSNLAWYQQKPGQPPKLLIYAASNLASGVPSRFKGSGSGTEFTLTISDLECADAATYYCQGAYWSSTSYFGNGFGGGTQVVVK
Take B2: the “reporter gene cell activity IC50” value in test [1] is 0.217 nM.

B3: 9E6 human-rabbit chimeric anti-CD40 antibody (antibody, human IgG1, V domains shown)
VH: QSVRESEGGLVKPTDTLTLTCTVSGFSLSSYDMSWVRQAPGNGLEWIGAIGGAGGTYYASWAKSRSTITRNTNLNTVTLKMSSLTAADTATYFCARGWTRLDLWGQGTLVTVSS
VL: DIVLTQTPSPVSGAVGGTVTIKCQASEDISSNLAWYQQKPGQPPKLLIFPASNLASGVSSRFKGSGSGTEFTLTISDLECADAATYYCQGGYWTSTSNFGNGFGGGTEVVVK
As for B3, in test [1], the “reporter gene cell activity IC50” value was 0.221 nM. For the same molecule, the figures for the EC50 in test [2] and in test [3] were 0.608 nM and 0.895 nM, respectively.

B4: 5A9 human-rabbit chimeric anti-CD40 antibody (antibody, human IgG1, V domains shown)
VH: QSVKESEGGLFKPTDTLTLTCTASRFSLSSYDMSWVRQAPGNGLEWIGAIGGAGGTYYASWAKSRSTITRNTNLNTLTLKMTSLTAADTATYFCARGWTRLDLWGQGTLVTVSS
VL: DIVLTQTASPVSGAVGGTVTINCQSSEDISSNLSWYQQKPGQPPKLLIYAASNLASGVPSRFKGSGSGTEFTLTISDLECADAATYYCQGGYWSGISNFGNGFGGGTEVVVK
Take B4: the “reporter gene cell activity IC50” value in test [1] was 0.317 nM. The same molecule showed an EC50 in test [2] of 0.671 nM.

B5: 10A4 human-rabbit chimeric anti-CD40 antibody (antibody, human IgG1, V domains shown)
VH: QSLEESGGRLVTPGGSLTLTCTVSGIDLSRNAISWVRQSPGNGLEWIGGIGSSGSAYYASWAKSRSTITRDTNLNTVTLKMTSLTAADTATYFCARDGYAGSSWGIYYGMDPWGPGTLVTVSS
VL: AIEMTQSPPSLSASVGETVRIRCLASEDIYRGISWYQQKPGKPPTLLIYGASTLQSGVPPRFSGSGSGTDYTLTIGGVQAEDAATYYCLGGHSYSSAGLTFGAGTKVEIK
With B5, the “reporter gene cell activity IC50” value in test [1] worked out at 0.217 nM. The molecule further yielded an EC50 in test [2] of 0.467 nM.

B6: humanized anti-CD40 antibody 9E6-L1H1 (antibody, human IgG1, V domains shown)
VH: EVQLQESGPGLVKPSDTLSLTCTVSGFSLSSYDMSWIRQPPGKGLEWIGAIGGAGGTYYASWAKSRVTISVDTSLNQVSLKLSSVTAADTAVYYCARGWTRLDLWGQGTLVTVSS
VL: DIQLTQSPSFLSASVGDRVTITCQASEDISSNLAWYQQKPGKPPKLLIFPASNLASGVPSRFSGSGSGTEFTLTISSLQPEDFATYYCQGGYWTSTSNFGNVFGGGTKVEIK
Regarding B6, a half-maximal effect in test [3] (EC50) was put at 1.08 nM.

B7: humanized anti-CD40 antibody 9E6-L4H1 (antibody, human IgG1, V domains shown)
VH: EVQLQESGPGLVKPSDTLSLTCTVSGFSLSSYDMSWIRQPPGKGLEWIGAIGGAGGTYYASWAKSRVTISVDTSLNQVSLKLSSVTAADTAVYYCARGWTRLDLWGQGTLVTVSS
VL: DIQLTQSPSFLSASVGDRVTITCQASEDISSNLAWYQQKPGKPPKLLIFPASNLASGVPSRFSGSGSGTEFTLTISSLQPEDFATYYCQGGYWTSTSNFGQGFGGGTKVEIK
With B7, it took 0.928 nM to reach a half-maximal effect in test [3] (EC50).

B8: humanized anti-CD40 antibody 9E6-L3H2 (antibody, human IgG1, V domains shown)
VH: QVQVQESGPGLVKPSDTLSLTCTVSGFSLSSYDMSWIRQPPGKGLEWIGAIGGAGGTYYASWAKSRVTISVDTSLNQVSLKLSSVTAADTAVYYCARGWTRLDLWGQGTLVTVSS
VL: DIQLTQSPSFLSASVGDRVTITCQASEDISSNLAWYQQKPGKPPKLLIFPASNLASGVPSRFSGSGSGTEFTLTISSLQPEDFATYYCQGGYWTSTSNFGTGFGGGTKVEIK
On to B8, for which the EC50 in test [3] stood at 1.15 nM.

B9: humanized anti-CD40 antibody 9E6-L1H2 (antibody, human IgG1, V domains shown)
VH: QVQVQESGPGLVKPSDTLSLTCTVSGFSLSSYDMSWIRQPPGKGLEWIGAIGGAGGTYYASWAKSRVTISVDTSLNQVSLKLSSVTAADTAVYYCARGWTRLDLWGQGTLVTVSS
VL: DIQLTQSPSFLSASVGDRVTITCQASEDISSNLAWYQQKPGKPPKLLIFPASNLASGVPSRFSGSGSGTEFTLTISSLQPEDFATYYCQGGYWTSTSNFGNVFGGGTKVEIK
In test [3], B9 had an EC50 of 1.05 nM.

B10: humanized anti-CD40 antibody 9E6-L2H2 (antibody, human IgG1, V domains shown)
VH: QVQVQESGPGLVKPSDTLSLTCTVSGFSLSSYDMSWIRQPPGKGLEWIGAIGGAGGTYYASWAKSRVTISVDTSLNQVSLKLSSVTAADTAVYYCARGWTRLDLWGQGTLVTVSS
VL: DIQLTQSPSFLSASVGDRVTITCQASEDISSNLAWYQQKPGKPPKLLIFPASNLASGVPSRFSGSGSGTEFTLTISSLQPEDFATYYCQGGYWTSTSNFGSGFGGGTKVEIK
On to B10, for which the response in test [3] was half-maximal at 1.66 nM (EC50).

B11: humanized anti-CD40 antibody 9E6-L3H1 (antibody, human IgG1, V domains shown)
VH: EVQLQESGPGLVKPSDTLSLTCTVSGFSLSSYDMSWIRQPPGKGLEWIGAIGGAGGTYYASWAKSRVTISVDTSLNQVSLKLSSVTAADTAVYYCARGWTRLDLWGQGTLVTVSS
VL: DIQLTQSPSFLSASVGDRVTITCQASEDISSNLAWYQQKPGKPPKLLIFPASNLASGVPSRFSGSGSGTEFTLTISSLQPEDFATYYCQGGYWTSTSNFGTGFGGGTKVEIK
In test [3], B11 returned an EC50 of 1.06 nM.

B12: 2F12 human-rabbit chimeric anti-CD40 antibody (antibody, human IgG1, V domains shown)
VH: QSVKESEGGLFKPKDTLTLTCTVSGFSLSSYGVSWVRQAPGNGLEWIGGIGSDGSAYYASWAKSRATITRDTNLKTVTLEMTSLTAADTATYFCARGGITVYAMWGPGTLVTVSS
VL: AFELTQTPASVEAAMGGTVTIKCQASQSISNGLAWYQQKPGQPPKLLIVGASNLASGVSSRFKGSGSGTEFTLSISDLECADGATYYCQSYFSSSSTVFGGGTEVVVK
notes: Rabbit variable regions joined to human IgG1 constant region with N297A (Eu) and human kappa constant region
With B12, the “reporter gene cell activity IC50” value in test [1] stood at 0.172 nM. Also, the values for the EC50 in test [2] and in test [3] were 0.412 nM and 0.479 nM, respectively.

B13: 5B8 human-rabbit chimeric anti-CD40 antibody (antibody, human IgG1, V domains shown)
VH: QSVKESEGGLFKPTDTLTLTCTVSGFSLNSYGVSWVRQAPGNGLEWIGAIGSSGSAYYASWARSRSTITRDTNLNTVTLKMTSLTAADTATYFCARGGITVYAIWGPGTLVTVSS
VL: AFELTQTPSPVSAAVGGTVTINCQASEDITNGIAWYQQKPGQPPKLLIAGASNLASGVSSRFKGSGSGTEFTLTISDLECDDAATYYCQSYYSSSYTIFGGGTEVVVK
Turning to B13, the “reporter gene cell activity IC50” value in test [1] is 0.203 nM. This molecule also yielded an EC50 in test [2] of 0.435 nM.

B14: 8C12 human-rabbit chimeric anti-CD40 antibody (antibody, human IgG1, V domains shown)
VH: QSVKESEGGLFKPTDTLTLTCTVSGFSLSSYGVSWVRQAPGNGLEWIGGIGSDGSAYYASWAKSRATITRDTNLKTVTLEMTSLTVADTATYFCARGGITVYAIWGPGTLVTVSS
VL: AFELTQTPSPVSAAVGGTVTIKCQASQSISNGLAWYQQKPGQPPKVLIVGASNLASGVSSRFKGSGSGTEFTLSISDLECADGATYYCQSYFSSSSTVFGGGTEVVVK
Turning to B14, in test [1], the “reporter gene cell activity IC50” value turned out to be 0.173 nM.

B15: 4D4 human-rabbit chimeric anti-CD40 antibody (antibody, human IgG1, V domains shown)
VH: QSVKESEGGLFKPTDTLTLTCTVSGFSLSSYGVSWVRQAPGNGLEWIGGIGSDGSAYYASWAKSRATITRDTNLKTVTLEMTSLTAADTATYFCARGGITVYAIWGPGTLVTVSS
VL: AFELTQTPSPVSAAVGGTVTIKCQASQSISNGLAWYQQKPGQPPKVLIVGASNLASGVSSRFKGSGSGTEFTLSISDLECADGATYYCQSYFSSSSTVFGGGTEVVVK
B15: in test [1], the “reporter gene cell activity IC50” value was 0.197 nM.

B16: 4F6 human-rabbit chimeric anti-CD40 antibody (antibody, human IgG1, V domains shown)
VH: QSVKESEGGLFKPADTLTLTCTVSRFSLSSYGVTWVRQAPGNGLEWIGAIGSTGSAYYASWAKSRSTITRDTNLNTVTLKMTSLTAADTATYFCARGGITAYAIWGPGTLVTVSS
VL: AFELTQTPSSVEAAVGGTVTIKCQASQSISNGLAWYQQKPGQPPKLLIAGASNLASGVSSRFKGSGSGIEFILTISDLECADAATYYCQSYYNSFTTVFGGGTEVVVK
B16: the “reporter gene cell activity IC50” value in test [1] turned out to be 0.182 nM. Besides, the EC50 in test [2] was determined as 0.258 nM.

B17: 8G10 human-rabbit chimeric anti-CD40 antibody (antibody, human IgG1, V domains shown)
VH: QSVKESEGGLFKPTATLTLTCTVSGFSLSSYGVSWVRQAPGSGLEWIGGIASTGTTYYANWAKSRSTITRDTNLKTVTLKMTSLTAADTATYFCARGGITAYAIWGPGTLVTVSS
VL: AFELTQTPSSVEAAVGGTVTIKCQASQSITNGLAWYQQKPGQPPKLLIAGASNLASGVSSRFKGSGSGTEFTLTISDLECADAATYYCQSYYDSSSTVFGGGTEVVVK
For B17, the “reporter gene cell activity IC50” value in test [1] was 0.156 nM.
